# Molecular target: T1, recombinant mouse CTLA-4 protein (mouse, UniProt P09793 36-162, limits assumed)
# T1 construct: also called CTLA-4 protein from mice
# Assay: ELISA, CTLA-4 protein coated on plate, anti-human IgG Fc-peroxidase detection
# Procedure: The binding activity of the anti-CTLA-4-IL-15Ra-sushi-IL-15 fusion protein to recombinant CTLA-4 protein which originated from different species, including human, cynomolgus monkey, rat, and mouse, was determined by Enzyme Linked Immunosorbent Assay (ELISA). Briefly, 96-well plates were coated overnight at 4° C. with […] of CTLA-4 protein diluted in PBS. Plates were blocked with 1% bovine serum albumin (BSA) for an hour at room temperature, and then incubated for additional 2 hours with the anti-CTLA-4-IL-15Ra-sushi-IL-15 fusion protein, Ipilimumab, or human IgG1 isotype control, at a 2-fold serial dilution starting from 1 μg/mL. Goat anti-human IgG (Fc specific)-peroxidase antibody (Sigma, 1:5000 dilution) was added to the plates and incubated for 1 hour at room temperature. After washing, the 3, 3′, 5, 5′-Tetramethylbenzidine (TMB) substrate was added to the wells to develop color and the absorbance at 450 nm was measured using the Multiskan plate reader (Thermo). Optical Density 450 (OD450) values were plotted against antibody concentration.
binder,measurement,value
"Ipilimumab (antibody, V domains shown, also called anti CTLA-4 antibody; CTLA-4 antibody) VH: QVQLVESGGGVVQPGRSLRLSCAASGFTFSSYTMHWVRQAPGKGLEWVTFISYDGNNKYYADSVKGRFTISRDNSKNTLYLQMNSLRAEDTAIYYCARTGWLGPFDYWGQGTLVTVSS VL: not shown",binding result,no binding

# Source: patent publication US20240254184A1 (SALUBRIS BIOTHERAPEUTICS, published 2024)
